Columns and labels:
Assay in all cases: fluorescence polarisation
FITC-CBX8 A335V peptide = molecular target: FITC-CBX8 A335V peptide
BCOR (aa 1176–1225)-FITC = BCOR (aa 1176–1225)-FITC (UniProt Q6W2J9)
MBP-AF9 = molecular target: MBP-AF9

Sequence of BCOR (aa 1176–1225)-FITC (Q6W2J9 1176-1225): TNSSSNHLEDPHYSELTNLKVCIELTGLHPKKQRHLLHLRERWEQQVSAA

Substance	Kd (FITC-CBX8 A335V peptide)	Kd (BCOR (aa 1176–1225)-FITC)	IC50 (MBP-AF9)
MBP-AF9 (domain or fragment)	12 nM	18 nM	–
unlabeled CBX8 A335V peptide	–	–	96 nM

— paper PMC7497807
